Substrate in series [1]: O=c1[nH]c(=O)n([C@H]2C[C@H](O)[C@@H](COP(=O)(O)O)O2)cc1-c1ccc(O)cc1
The following applies: Lacticaseibacillus casei.
Description: (§1) Inhibitory effect against Lactobacillus casei thymidylate synthase

Substrate in series [2]: NC(=O)c1ccc(-c2cn([C@H]3C[C@H](O)[C@@H](COP(=O)(O)O)O3)c(=O)[nH]c2=O)cc1
The settings on record: Lacticaseibacillus casei.
Description: as §1

Substrate in series [3]: COC(=O)c1ccc(-c2cn([C@H]3C[C@H](O)[C@@H](COP(=O)(O)O)O3)c(=O)[nH]c2=O)cc1
The following applies: Lacticaseibacillus casei.
Description: as §1

Substrate in series [4]: N#Cc1ccc(-c2cn([C@H]3C[C@H](O)[C@@H](COP(=O)(O)O)O3)c(=O)[nH]c2=O)cc1
The following applies: Lacticaseibacillus casei.
Description: as §1

Substrate in series [5]: O=c1[nH]c(=O)n([C@H]2C[C@H](O)[C@@H](COP(=O)(O)O)O2)cc1-c1ccc(O)cc1
The following applies: Homo sapiens.
Description: (§2) Inhibitory effect on human lymphoblast (Molt/4F) thymidylate synthase

Substrate in series [6]: NC(=O)c1ccc(-c2cn([C@H]3C[C@H](O)[C@@H](COP(=O)(O)O)O3)c(=O)[nH]c2=O)cc1
The settings on record: Homo sapiens.
Description: as §2

Substrate in series [7]: COC(=O)c1ccc(-c2cn([C@H]3C[C@H](O)[C@@H](COP(=O)(O)O)O3)c(=O)[nH]c2=O)cc1
The settings on record: Homo sapiens.
Description: as §2

Substrate in series [8]: N#Cc1ccc(-c2cn([C@H]3C[C@H](O)[C@@H](COP(=O)(O)O)O3)c(=O)[nH]c2=O)cc1
The settings on record: Homo sapiens.
Description: as §2

Substrate in series [9]: O=c1[nH]c(=O)n([C@H]2C[C@H](O)[C@@H](COP(=O)(O)O)O2)cc1-c1ccc(O)cc1
The settings on record: Mus musculus.
Description: (§3) Inhibitory effect on murine leukemia (L1210) thymidylate synthase

Substrate in series [10]: NC(=O)c1ccc(-c2cn([C@H]3C[C@H](O)[C@@H](COP(=O)(O)O)O3)c(=O)[nH]c2=O)cc1
The settings on record: Mus musculus.
Description: as §3

Substrate in series [11]: COC(=O)c1ccc(-c2cn([C@H]3C[C@H](O)[C@@H](COP(=O)(O)O)O3)c(=O)[nH]c2=O)cc1
The settings on record: Mus musculus.
Description: as §3

Substrate in series [12]: N#Cc1ccc(-c2cn([C@H]3C[C@H](O)[C@@H](COP(=O)(O)O)O3)c(=O)[nH]c2=O)cc1
Description: as §3
The following applies: Mus musculus.

B1: Thymidylate synthase (Lactobacillus casei), P00469 (protein)
chain: MLEQPYLDLAKKVLDEGHFKPDRTHTGTYSIFGHQMRFDLSKGFPLLTTKKVPFGLIKSELLWFLHGDTNIRFLLQHRNHIWDEWAFEKWVKSDEYHGPDMTDFGHRSQKDPEFAAVYHEEMAKFDDRVLHDDAFAAKYGDLGLVYGSQWRAWHTSKGDTIDQLGDVIEQIKTHPYSRRLIVSAWNPEDVPTMALPPCHTLYQFYVNDGKLSLQLYQRSADIFLGVPFNIASYALLTHLVAHECGLEVGEFIHTFGDAHLYVNHLDQIKEQLSRTPRPAPTLQLNPDKHDIFDFDMKDIKLLNYDPYPAIKAPVAV
What is called Km is the substrate concentration at which the rate is half of its maximum. On to B1, for which the Km was 4.8 µM in [1], 4.01 µM in series [2], 4.19 µM in series [3] and 4.37 µM in series [4].

B2: Thymidylate synthase (Homo sapiens), P04818 (protein)
chain: MPVAGSELPRRPLPPAAQERDAEPRPPHGELQYLGQIQHILRCGVRKDDRTGTGTLSVFGMQARYSLRDEFPLLTTKRVFWKGVLEELLWFIKGSTNAKELSSKGVKIWDANGSRDFLDSLGFSTREEGDLGPVYGFQWRHFGAEYRDMESDYSGQGVDQLQRVIDTIKTNPDDRRIIMCAWNPRDLPLMALPPCHALCQFYVVNSELSCQLYQRSGDMGLGVPFNIASYALLTYMIAHITGLKPGDFIHTLGDAHIYLNHIEPLKIQLQREPRPFPKLRILRKVEKIDDFKAEDFQIEGYNPHPTIKMEMAV
Regarding B2, the Km in series [5] came to 1.54 µM; in [6], 1.48 µM; in series [7] it was 1.38 µM; in [8], 1.51 µM.

B3: Thymidylate synthase (Mus musculus), P07607 (protein)
chain: MLVVGSELQSDAQQLSAEAPRHGELQYLRQVEHILRCGFKKEDRTGTGTLSVFGMQARYSLRDEFPLLTTKRVFWKGVLEELLWFIKGSTNAKELSSKGVRIWDANGSRDFLDSLGFSARQEGDLGPVYGFQWRHFGAEYKDMDSDYSGQGVDQLQKVIDTIKTNPDDRRIIMCAWNPKDLPLMALPPCHALCQFYVVNGELSCQLYQRSGDMGLGVPFNIASYALLTYMIAHITGLQPGDFVHTLGDAHIYLNHIEPLKIQLQREPRPFPKLKILRKVETIDDFKVEDFQIEGYNPHPTIKMEMAV
Consider B3, for which the Km worked out at 1.28 µM in [9], 1.28 µM in [10], 1.28 µM in series [11] and 1.27 µM in series [12].

The values are drawn from ChEMBL document CHEMBL1124237, “Linear free energy relationship studies of enzyme active site binding: thymidylate synthase” (J Med Chem, 1988).
